These results are taken from paper PMC5828407 (Veterinary Research, 2018).

For the test, the target named is GST-tagged FaeG fusion protein of F4ac (Escherichia coli, UniProt P14190 22-283). As to the kind of experiment: ELISA; APN protein coated on plates, incubated with FaeG peptides, fusion FaeG proteins or F4 fimbriae; absorbance at 450 nm. The following applies: both partners purified. In general terms: In an ELISA, binding on a coated surface is turned into a signal by an enzyme label.

B1: porcine aminopeptidase N (APN), His-tagged whole protein (receptor)
chain: MAKGFYISKALGILGILLGVAAVATIIALSVVYAQEKNKNAEHVPQAPTSPTITTTAAITLDQSKPWNRYRLPTTLLPDSYNVTLRPYLTPNADGLYIFKGKSIVRLLCQEPTDVIIIHSKKLNYTTQGHMVVLRGVGDSQVPEIDRTELVELTEYLVVHLKGSLQPGHMYEMESEFQGELADDLAGFYRSEYMEGNVKKVLATTQMQSTDARKSFPCFDEPAMKATFNITLIHPNNLTALSNMPPKGSSTPLAEDPNWSVTEFETTPVMSTYLLAYIVSEFQSVNETAQNGVLIRIWARPNAIAEGHGMYALNVTGPILNFFANHYNTSYPLPKSDQIALPDFNAGAMENWGLVTYRENALLFDPQSSSISNKERVVTVIAHELAHQWFGNLVTLAWWNDLWLNEGFASYVEYLGADHAEPTWNLKDLIVPGDVYRVMAVDALASSHPLTTPAEEVNTPAQISEMFDSISYSKGASVIRMLSNFLTEDLFKEGLASYLHAFAYQNTTYLDLWEHLQKAVDAQTSIRLPDTVRAIMDRWTLQMGFPVITVDTKTGNISQKHFLLDSESNVTRSSAFDYLWIVPISSIKNGVMQDHYWLRDVSQAQNDLFKTASDDWVLLNVNVTGYFQVNYDEDNWRMIQHQLQTNLSVIPVINRAQVIYDSFNLATAHMVPVTLALDNTLFLNGEKEYMPWQAALSSLSYFSLMFDRSEVYGPMKKYLRKQVEPLFQHFETLTKNWTERPENLMDQYSEINAISTACSNGLPQCENLAKTLFDQWMSDPENNPIHPNLRSTIYCNAIAQGGQDQWDFAWGQLQQAQLVNEADKLRSALACSNEVWLLNRYLGYTLNPDLIRKQDATSTINSIASNVIGQPLAWDFVQSNWKKLFQDYGGGSFSFSNLIQGVTRRFSSEFELQQLEQFKKNNMDVGFGSGTRALEQALEKTKANIKWVKENKEVVLNWFIEHS
On to B1, for which the binding result is “binds”.
